# Patent publication US20210284734A1 (SYMPHOGEN A S, published 2021)
# Experiments:
# [1] = target: T1, human PD-1 ECD Fc fusion, wild-type (human, UniProt Q15116 21-170); assay: SPR, Fab on captured wild-type PD-1-Fc; row head prints (nM), values evidently in M
# T1 construct: also called Hu PD-1 ECD wild-type; hu PD-1 ECD; not shown: human IgG1 Fc, residues P101-K330
# human PD-1 ECD-Fc A50G = target: T2, human PD-1 ECD-Fc A50G (human, UniProt Q15116 21-170); assay: SPR, Fab on captured PD-1-Fc;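 also: Alanine-scan PD-1 Fc fusions expressed transiently in ExpiCHO, captured on anti-human IgG Fc surface in IBIS MX96, anti-PD-1 Fab association 15 min, dissociation 30 min, Langmuir 1:1 fit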
# T2 construct: not shown: human IgG1 Fc, residues P101-K330
# human PD-1 ECD-Fc G22A = target: T3, human PD-1 ECD-Fc G22A (human, UniProt Q15116 21-170); assay: SPR, Fab on captured PD-1-Fc;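 also: Alanine-scan PD-1 Fc fusions expressed transiently in ExpiCHO, captured on anti-human IgG Fc surface in IBIS MX96, anti-PD-1 Fab association 15 min, dissociation 30 min, Langmuir 1:1 fit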
# T3 construct: not shown: human IgG1 Fc, residues P101-K330
# T3 sequence (Q15116 21-170 G22A): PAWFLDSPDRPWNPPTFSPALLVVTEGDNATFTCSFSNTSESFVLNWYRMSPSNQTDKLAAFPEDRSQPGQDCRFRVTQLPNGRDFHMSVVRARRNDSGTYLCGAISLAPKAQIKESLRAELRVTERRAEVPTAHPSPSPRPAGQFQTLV
# human PD-1 ECD-Fc Q91A = target: T4, human PD-1 ECD-Fc Q91A (human, UniProt Q15116 21-170); assay: SPR, Fab on captured PD-1-Fc;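 also: Alanine-scan PD-1 Fc fusions expressed transiently in ExpiCHO, captured on anti-human IgG Fc surface in IBIS MX96, anti-PD-1 Fab association 15 min, dissociation 30 min, Langmuir 1:1 fit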
# T4 construct: not shown: human IgG1 Fc, residues P101-K330
# T4 sequence (Q15116 21-170 Q91A): as the sequence (Q15116 21-170 G22A) above, with A2G, Q71A counted along it
# human PD-1 ECD-Fc N116A = target: T5, human PD-1 ECD-Fc N116A (human, UniProt Q15116 21-170); assay: SPR, Fab on captured PD-1-Fc;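 also: Alanine-scan PD-1 Fc fusions expressed transiently in ExpiCHO, captured on anti-human IgG Fc surface in IBIS MX96, anti-PD-1 Fab association 15 min, dissociation 30 min, Langmuir 1:1 fit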
# T5 construct: not shown: human IgG1 Fc, residues P101-K330
# T5 sequence (Q15116 21-170 N116A): as the sequence (Q15116 21-170 G22A) above, with A2G, N96A counted along it
# human PD-1 ECD-Fc A163G = target: T6, human PD-1 ECD-Fc A163G (human, UniProt Q15116 21-170); assay: SPR, Fab on captured PD-1-Fc
# T6 construct: not shown: human IgG1 Fc, residues P101-K330
# T6 sequence (Q15116 21-170 A163G): as the sequence (Q15116 21-170 G22A) above, with A2G, A143G counted along it
# human PD-1 ECD-Fc S157R = target: T7, human PD-1 ECD-Fc S157R (human, UniProt Q15116 21-170); assay: SPR, Fab on captured PD-1-Fc
# T7 construct: also called Rat mutation S157R; not shown: human IgG1 Fc, residues P101-K330
# T7 sequence (Q15116 21-170 S157R): as the sequence (Q15116 21-170 G22A) above, with A2G, S137R counted along it
# human PD-1 ECD-Fc T76A = target: T8, human PD-1 ECD-Fc T76A (human, UniProt Q15116 21-170); assay: SPR, Fab on captured PD-1-Fc
# T8 construct: not shown: human IgG1 Fc, residues P101-K330
# T8 sequence (Q15116 21-170 T76A): as the sequence (Q15116 21-170 G22A) above, with A2G, T56A counted along it
# human PD-1 ECD-Fc D48A = target: T9, human PD-1 ECD-Fc D48A (human, UniProt Q15116 21-170); assay: SPR, Fab on captured PD-1-Fc
# T9 construct: not shown: human IgG1 Fc, residues P101-K330
# T9 sequence (Q15116 21-170 D48A): as the sequence (Q15116 21-170 G22A) above, with A2G, D28A counted along it
# human PD-1 ECD-Fc N66A = target: T10, human PD-1 ECD-Fc N66A (human, UniProt Q15116 21-170); assay: SPR, Fab on captured PD-1-Fc
# T10 construct: not shown: human IgG1 Fc, residues P101-K330
# T10 sequence (Q15116 21-170 N66A): as the sequence (Q15116 21-170 G22A) above, with A2G, N46A counted along it
# human PD-1 ECD-Fc G164A = target: T11, human PD-1 ECD-Fc G164A (human, UniProt Q15116 21-170); assay: SPR, Fab on captured PD-1-Fc
# T11 construct: not shown: human IgG1 Fc, residues P101-K330
# T11 sequence (Q15116 21-170 G164A): as the sequence (Q15116 21-170 G22A) above, with A2G, G144A counted along it
# human PD-1 ECD-Fc D77A = target: T12, human PD-1 ECD-Fc D77A (human, UniProt Q15116 21-170); assay: SPR, Fab on captured PD-1-Fc
# T12 construct: not shown: human IgG1 Fc, residues P101-K330
# T12 sequence (Q15116 21-170 D77A): as the sequence (Q15116 21-170 G22A) above, with A2G, D57A counted along it
# human PD-1 ECD-Fc T145A = target: T13, human PD-1 ECD-Fc T145A (human, UniProt Q15116 21-170); assay: SPR, Fab on captured PD-1-Fc
# T13 construct: not shown: human IgG1 Fc, residues P101-K330
# human PD-1 ECD-Fc T36A = target: T14, human PD-1 ECD-Fc T36A (human, UniProt Q15116 21-170); assay: SPR, Fab on captured PD-1-Fc
# T14 construct: not shown: human IgG1 Fc, residues P101-K330
# T14 sequence (Q15116 21-170 T36A): as the sequence (Q15116 21-170 G22A) above, with A2G, T16A counted along it
# human PD-1 ECD-Fc P152A = target: T15, human PD-1 ECD-Fc P152A (human, UniProt Q15116 21-170); assay: SPR, Fab on captured PD-1-Fc
# T15 construct: not shown: human IgG1 Fc, residues P101-K330
# T15 sequence (Q15116 21-170 P152A): as the sequence (Q15116 21-170 G22A) above, with A2G, P132A counted along it
# human PD-1 ECD-Fc S159A = target: T16, human PD-1 ECD-Fc S159A (human, UniProt Q15116 21-170); assay: SPR, Fab on captured PD-1-Fc
# T16 construct: not shown: human IgG1 Fc, residues P101-K330
# T16 sequence (Q15116 21-170 S159A): as the sequence (Q15116 21-170 G22A) above, with A2G, S139A counted along it
# human PD-1 ECD-Fc S27A = target: T17, human PD-1 ECD-Fc S27A (human, UniProt Q15116 21-170); assay: SPR, Fab on captured PD-1-Fc
# T17 construct: not shown: human IgG1 Fc, residues P101-K330
# T17 sequence (Q15116 21-170 S27A): as the sequence (Q15116 21-170 G22A) above, with A2G, S7A counted along it
# human PD-1 ECD-Fc D92A = target: T18, human PD-1 ECD-Fc D92A (human, UniProt Q15116 21-170); assay: SPR, Fab on captured PD-1-Fc
# T18 construct: not shown: human IgG1 Fc, residues P101-K330
# T18 sequence (Q15116 21-170 D92A): as the sequence (Q15116 21-170 G22A) above, with A2G, D72A counted along it
# human PD-1 ECD-Fc P31A = target: T19, human PD-1 ECD-Fc P31A (human, UniProt Q15116 21-170); assay: SPR, Fab on captured PD-1-Fc
# T19 construct: not shown: human IgG1 Fc, residues P101-K330
# T19 sequence (Q15116 21-170 P31A): as the sequence (Q15116 21-170 G22A) above, with A2G, P11A counted along it
# human PD-1 ECD-Fc P21A = target: T20, human PD-1 ECD-Fc P21A (human, UniProt Q15116 22-170); assay: SPR, Fab on captured PD-1-Fc
# T20 construct: not shown: human IgG1 Fc, residues P101-K330
# T20 sequence (Q15116 21-170 P21A): as the sequence (Q15116 21-170 G22A) above, with P1A, A2G counted along it
# human PD-1 ECD-Fc G119A = target: T21, human PD-1 ECD-Fc G119A (human, UniProt Q15116 21-170); assay: SPR, Fab on captured PD-1-Fc
# T21 construct: not shown: human IgG1 Fc, residues P101-K330
# T21 sequence (Q15116 21-170 G119A): as the sequence (Q15116 21-170 G22A) above, with A2G, G99A counted along it
# human PD-1 ECD-Fc S73A = target: T22, human PD-1 ECD-Fc S73A (human, UniProt Q15116 21-170); assay: SPR, Fab on captured PD-1-Fc
# T22 construct: not shown: human IgG1 Fc, residues P101-K330
# T22 sequence (Q15116 21-170 S73A): as the sequence (Q15116 21-170 G22A) above, with A2G, S53A counted along it
# human PD-1 ECD-Fc Q75A = target: T23, human PD-1 ECD-Fc Q75A (human, UniProt Q15116 21-170); assay: SPR, Fab on captured PD-1-Fc
# T23 construct: not shown: human IgG1 Fc, residues P101-K330
# T23 sequence (Q15116 21-170 Q75A): as the sequence (Q15116 21-170 G22A) above, with A2G, Q55A counted along it
# human PD-1 ECD-Fc E150A = target: T24, human PD-1 ECD-Fc E150A (human, UniProt Q15116 21-170); assay: SPR, Fab on captured PD-1-Fc
# T24 construct: not shown: human IgG1 Fc, residues P101-K330
# T24 sequence (Q15116 21-170 E150A): as the sequence (Q15116 21-170 G22A) above, with A2G, E130A counted along it
# human PD-1 ECD-Fc T98A = target: T25, human PD-1 ECD-Fc T98A (human, UniProt Q15116 21-170); assay: SPR, Fab on captured PD-1-Fc
# T25 construct: not shown: human IgG1 Fc, residues P101-K330
# human PD-1 ECD-Fc T153A = target: T26, human PD-1 ECD-Fc T153A (human, UniProt Q15116 21-170); assay: SPR, Fab on captured PD-1-Fc
# T26 construct: not shown: human IgG1 Fc, residues P101-K330
# T26 sequence (Q15116 21-170 T153A): as the sequence (Q15116 21-170 G22A) above, with A2G, T133A counted along it
# human PD-1 ECD-Fc P130A = target: T27, human PD-1 ECD-Fc P130A (human, UniProt Q15116 21-170); assay: SPR, Fab on captured PD-1-Fc
# T27 construct: not shown: human IgG1 Fc, residues P101-K330
# T27 sequence (Q15116 21-170 P130A): as the sequence (Q15116 21-170 G22A) above, with A2G, P110A counted along it
# human PD-1 ECD-Fc V64K = target: T28, human PD-1 ECD-Fc V64K (human, UniProt Q15116 21-170); assay: SPR, Fab on captured PD-1-Fc
# T28 construct: also called Rat mutation V64K; not shown: human IgG1 Fc, residues P101-K330
# T1 sequence (Q15116 21-170): as the sequence (Q15116 21-170 G22A) above, with A2G counted along it
Binder,KD mutant/KD wild-type (human PD-1 ECD-Fc A50G) [ratio],KD mutant/KD wild-type (human PD-1 ECD-Fc G22A) [ratio],KD mutant/KD wild-type (human PD-1 ECD-Fc Q91A) [ratio],KD mutant/KD wild-type (human PD-1 ECD-Fc N116A) [ratio],KD mutant/KD wild-type (human PD-1 ECD-Fc A163G) [ratio],KD mutant/KD wild-type (human PD-1 ECD-Fc S157R) [ratio],KD mutant/KD wild-type (human PD-1 ECD-Fc T76A) [ratio],KD mutant/KD wild-type (human PD-1 ECD-Fc D48A) [ratio],KD mutant/KD wild-type (human PD-1 ECD-Fc N66A) [ratio],KD mutant/KD wild-type (human PD-1 ECD-Fc G164A) [ratio],KD mutant/KD wild-type (human PD-1 ECD-Fc D77A) [ratio],KD mutant/KD wild-type (human PD-1 ECD-Fc T145A) [ratio],KD mutant/KD wild-type (human PD-1 ECD-Fc T36A) [ratio],KD mutant/KD wild-type (human PD-1 ECD-Fc P152A) [ratio],KD mutant/KD wild-type (human PD-1 ECD-Fc S159A) [ratio],KD mutant/KD wild-type (human PD-1 ECD-Fc S27A) [ratio],KD mutant/KD wild-type (human PD-1 ECD-Fc D92A) [ratio],KD mutant/KD wild-type (human PD-1 ECD-Fc P31A) [ratio],KD mutant/KD wild-type (human PD-1 ECD-Fc P21A) [ratio],KD mutant/KD wild-type (human PD-1 ECD-Fc G119A) [ratio],further results
"12819.17149 Fab (Fab, V domains shown, monomeric Fab fragment) VH: EVQLLESGGGLVQPGGSLRLSCAASGFTFTRYDMVWVRQAPGKGLEWVAGIGDSNKMTRYAPAVKGRATISRDNSKNTLYLQMNSLRAEDTAVYYCAKGSCIACWDEAGRIDAWGQGTLVTVSS VL: SYELTQDPAVSVALGQTVRITCSGGGSYDGSSYYGWYQQKPGQAPVTVIYNNNNRPSDIPDRFSGSSSGNTASLTITGAQAEDEADYYCGSYDRPETNSDYVGMFGSGTKVTVL",1.4,1,0.8,1.4,1,1.6,1.4,1,2.2,1.1,2.8,1.1,1,1.4,1.1,0.8,1.2,1.1,2.1,1,Kd [1]: 0.0268 nM; KD mutant/KD wild-type (human PD-1 ECD-Fc S73A): 0.9 ratio; KD mutant/KD wild-type (human PD-1 ECD-Fc Q75A): 1 ratio; KD mutant/KD wild-type (human PD-1 ECD-Fc E150A): 1 ratio; KD mutant/KD wild-type (human PD-1 ECD-Fc T98A): 1.1 ratio; KD mutant/KD wild-type (human PD-1 ECD-Fc T153A): 0.9 ratio; KD mutant/KD wild-type (human PD-1 ECD-Fc P130A): 105 ratio; KD mutant/KD wild-type (human PD-1 ECD-Fc V64K): 35.7 ratio
"13112.15380 Fab (Fab, V domains shown) VH: EVQLLESGGGLVQPGGSLRLSCAASGFTFSSYNMFWVRQAPGKGLEFVAEISGSNTGSRTWYAPAVKGRATISRDNSKNTLYLQMNSLRAEDTAVYYCAKSIYGGYCAGGYSCGVGLIDAWGQGTLVTVSS VL: SYELTQDPAVSVALGQTVRITCSGGSSDYYGWFQQKPGQAPVTVIYYNNKRPSDIPDRFSGSSSGNTASLTITGAQAEDEADYYCGNADSSVGVFGSGTKVTVL",1.7,1,1,0.9,1.1,1,1.2,2.4,1,1,1,82.4,0.9,1,0.9,1.1,0.9,1.1,1.1,1,KD mutant/KD wild-type (human PD-1 ECD-Fc S73A): 0.9 ratio; KD mutant/KD wild-type (human PD-1 ECD-Fc Q75A): 0.9 ratio; KD mutant/KD wild-type (human PD-1 ECD-Fc E150A): 1 ratio; KD mutant/KD wild-type (human PD-1 ECD-Fc T98A): 1 ratio; KD mutant/KD wild-type (human PD-1 ECD-Fc T153A): 1 ratio; KD mutant/KD wild-type (human PD-1 ECD-Fc P130A): 0.9 ratio; KD mutant/KD wild-type (human PD-1 ECD-Fc V64K): 1 ratio
"12865.17150 Fab (Fab, V domains shown, monomeric Fab fragment) VH: EVQLLESGGGLVQPGGSLRLSCAASGFDFSDHGMQWVRQAPGKGLEYVGVIDTTGRYTYYAPAVKGRATISRDNSKNTLYLQMNSLRAEDTAVYYCAKTTCVGGYLCNTVGSIDAWGQGTLVTVSS VL: SYELTQDPAVSVALGQTVRITCSGGGSSSYYGWYQQKPGQAPVTVIYDDTNRPSGIPDRFSGSSSGNTASLTITGAQAEDEADYYCGGYEGSSHAGIFGSGTKVTVL",0.6,0.9,1,0.8,1.1,0.9,0.3,0.6,2.1,0.9,0.3,0.7,1,0.9,0.8,0.8,0.8,1,1,0.4,KD mutant/KD wild-type (human PD-1 ECD-Fc S73A): 0.5 ratio; KD mutant/KD wild-type (human PD-1 ECD-Fc Q75A): 0.5 ratio; KD mutant/KD wild-type (human PD-1 ECD-Fc E150A): 1 ratio; KD mutant/KD wild-type (human PD-1 ECD-Fc T98A): 0.9 ratio; KD mutant/KD wild-type (human PD-1 ECD-Fc T153A): 1 ratio; KD mutant/KD wild-type (human PD-1 ECD-Fc P130A): 0.5 ratio; KD mutant/KD wild-type (human PD-1 ECD-Fc V64K): 1.3 ratio
